# Measurements taken from patent US20200071380A1, “COMBINATION THERAPIES COMPRISING SIRP ALPHA-BASED CHIMERIC PROTEINS” (Shattuck Labs, Inc., priority 2018, published 2020).
# How the values were obtained:
# [1] = biological target: recombinant mouse CD47 and CD40 (Mus musculus, UniProt P27512+Q61735); assay: Dual functional ELISA of the murine surrogate; assay type: binding
# [2] = biological target: T1, murine CD40 (Mus musculus, UniProt P27512); assay: Murine CD40/NFκB-luciferase reporter in CHOK1 cells; assay type: cell-based
# T1 construct: expressed in transfected cells; host or cells: CHO-K1
# T1 sequence (P27512 20-289): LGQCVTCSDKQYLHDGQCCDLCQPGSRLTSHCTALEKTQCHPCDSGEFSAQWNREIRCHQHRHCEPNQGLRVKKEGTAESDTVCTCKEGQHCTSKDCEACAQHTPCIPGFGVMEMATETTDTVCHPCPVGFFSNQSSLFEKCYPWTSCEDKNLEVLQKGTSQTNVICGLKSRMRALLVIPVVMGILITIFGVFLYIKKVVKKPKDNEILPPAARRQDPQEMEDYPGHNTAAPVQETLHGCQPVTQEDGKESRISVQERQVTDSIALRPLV
# Description: Cells were cultured with a dose titration of recombinant human CD40L-his or SIRPα-Fc-CD40L, and luminescence was read on a luminometer after 6 hours. The left histograms are (−) Control, middle histograms are hCD40L-His and the right histograms are SIRPα-Fc-CD40L. […] CD8-depleted PBMC from 33-50 distinct human donors were cultured with media only, the neoantigen positive control KLH, the clinical stage non-activating control Exenatide, or 0.3, 3, 30, or 300 nM of SIRPα-Fc-CD40L. At 10 μg/ml on the X-axis, the samples are, top to bottom: hCD40L-Fc, SIRPα-Fc-CD40L, ahCD40 (HB14) ad (−) Control. […] The left histograms are (−) control, second from left are FC-mCD40L, second from right are anti-mCD40 (FGK4.5) and right are mSIRPα-Fc-CD40L.
# The murine version of the CD40/NFκB-luciferase system was established in CHOK1 cells.
# [3] = system: A20 lymphoma; assay: Murine phagocytosis assay, BMDMs with A20 lymphoma cells; assay type: cell-based
# [4] = system: WEHI3 leukemia cells; assay: Murine phagocytosis assay, BMDMs with WEHI3 leukemia cells; assay type: cell-based
# [5] = system: splenic dendritic cells; assay: In vivo splenic dendritic cell activation; set-up: species or system mice; settings: single IV dose; 6 or 24 hours, especially the 24 hour time point
# Description: For each panel, the samples are (left to right): untreated, sheep RBCs, αCD47 (MIAP301), αSIRPα (P84), mSIRPα-Fc-CD40L, mSIRPα-Fc-CD40L (24 Hrs), and αCD47 (MIAP301) (24 hrs). FIG. 9B is a quantitation of in vivo dendritic cell activation corresponding to FIG. 9A. Shown is the absolute percent of CD4+ and CD8+ dendritic cells; also gated on CD11c and DC1R2. In FIG. 9B, for each panel, the samples are (left to right): untreated, sheep RBCs, αCD47 (MIAP301), αSIRPα (P84), SIRPα-Fc-CD40L (150 μg), SIRPα-Fc-CD40L (300 μg), SIRPα-Fc-CD40L (300 μg) (24 Hrs), and αCD47 (MIAP301) (24 hrs).
# An in vivo assay to examine SIRPα/CD47 function in mice was describe in Yi et al., “Splenic Dendritic Cells Survey Red Blood Cells for Missing Self-CD47 to Trigger Adaptive Immune Responses. Immunity. 2015;43(4):764-75) (the contents of which is incorporated by reference in its entirety). This assay detects the activation status of splenic dendritic cells in response to SIRPa/CD47 inhibitors or to infused sheep red blood cells (RBC).
# After 6 or 24 hours, mice were euthanized and their spleens excised, dissociated, and assessed by flow cytometry for populations of activated CD4+ dendritic cells (DCs) (FIG. 9A, left panel) or CD8+dendritic cells (FIG. 9A, right panel); both populations of dendritic cells were also positive for MHC II (I-Ab), CD11c, and DC1R2.
# [6] = system: CT26 tumors; assay: Syngeneic CT26 colon tumor model versus CD40/CD47 antibodies (Example 11); assay type: in vivo, mice
# Description: FIG. 20C: a similar CT26 experiment was initiated as described in FIG. 20A above, however mice were pre-treated on days −1, 1, and 10 with IP injections of 100 μg of either or both CD4/CD8 depleting antibodies. Mice were inoculated with CT26 tumors on day 0 and treated at a later starting date than FIG. 20A with mSIRPα-Fc-CD40L ARC on days 7, 9, and 11. […] In FIG. 20D and FIG. 20E, BALB/C mice were inoculated with WEHI3 tumors (FIG. 20D) or A20 tumors (FIG. 20E) subcutaneously on the rear flank, and then treated via IP injection with anti-CD20 or mSIRPα-Fc-CD40L on days 7, 9, and 11 (WEHI3) or days 10, 12, and 14 (A20); when tumors were established and reached approximately 57-60 mm^3. A cohort of mice were pre-treated with an interferon alpha receptor 1 (IFNAR1) blocking antibody ([…] by IP injection) on days -1, 1, and 10 (WEHI3) or on days −1, 1, and 13 (A20). FIG. 20F to FIG. 20H are graphs showing blockade of CD4, CD8, and IFNAR1. Peripheral blood analysis by flow cytometry of CD4 (FIG. 20F), CD8 (FIG. 20G), and IFNAR1 (FIG. 20H) depletion following depleting antibody treatment corresponding to FIG. 20C to FIG. 20E. Samples were normalized to untreated animals.
# Implanted CT26 tumors were allowed to grow to ˜30 mm^3 before treatment was initiated with a fixed regimen of two doses of either a CD40 agonist antibody (clone FGK4.5), a CD47 blocking antibody (clone MIAP301), a combination of the two antibodies, or the murine SIRPα-Fc-CD40L chimeric protein. […] Based on this observation, these experiments were repeated in the setting of antibody-mediated depletion of both CD4+ and CD8+ cells (FIG. 20C).
# CD4 and CD8 depletion was verified in the peripheral blood at multiple time points during the experiment (see, FIG. 20F and FIG. 20G).
# [7] = system: peripheral blood cell populations; assay: Peripheral blood cell populations in treated mice; assay type: in vivo
# Description: FIG. 22B is a graph showing RBCs and test agents that were incubated at 37° C. for 24 hours and then the media was assessed at OD490 for changes in absorbance due to hemoglobin being released from lysing RBCs. […] FIG. […] Cell populations were assessed by flow cytometry and included CD20+ B cells, CD110+, CD4+/CD11c+, and CD8+/CD11c+ dendritic cells.
# Receptor occupancy was evaluated on circulating CD40+ lymphocytes.
molecule,measurement,setting,value
"mSIRPα-Fc-CD40L: Murine version of SIRPα-Fc-CD40L, made from murine proteins to assess activity in vivo (protein) KELKVTQPEKSVSVAAGDSTVLNCTLTSLLPVGPIRWYRGVGPSRLLIYSFAGEYVPRIRNVSDTTKRNNMDFSIRISNVTPADAGIYYCVKFQKGSSEPDTEIQSGGGTEVYVLAKPSPPEVSGPADRGIPDQKVNFTCKSHGFSPRNITLKWFKDGQELHPLETTVNPSGKNVSYNISSTVRVVLNSMDVNSKVICEVAHITLDRSPLRGIANLSNFIRVSPTVKVTQQSPTSMNQVNLTCRAERFYPEDLQLIWLENGNVSRNDTPKNLTKNTDGTYNYTSLFLVNSSAHREDVVFTCQVKHDQQPAITRNHTVLGFAHSSDQGSMQTFPDNNATHNWNVPRDCGCKPCICTVPEVSSVFIFPPKPKDVLTITLTPKVTCVVVDISKDDPEVQFSWFVDDVEVHTAQTQPREEQFNSTFRSVSELPIMHQDWLNGKEFKCRVNSAAFPAPIEKTISKTKGRPKAPQVYTIPPPKEQMAKDKVSLTCMITDFFPEDITVEWQWNGQPAENYKNTQPIMNTNGSYFVYSKLNVQKSNWEAGNTFTCSVLHEGLHNHHTEKSLSHSPGKHRRLDKVEEEVNLHEDFVFIKKLKRCNKGEGSLSLLNCEEMRRQFEDLVKDITLNKEEKKENSFEMQRGDEDPQIAAHVVSEANSNAASVLQWAKKGYYTMKSNLVMLENGKQLTVKREGLYYVYTQVTFCSNREPSSQRPFIVGLWLKPSSGSERILLKAANTHSSSQLCEQQSVHLGGVFELQAGASVFVNVTEASQVIHRVGFSSFGLLKL",simultaneous binding to recombinant mouse CD47 and CD40,[1],simultaneous binding
same,"activation of the NFκB pathway, murine CD40 reporter",[2],consistently stimulated potent activation of the NFκB pathway
same,phagocytic activity,[3],induced strong phagocytic activity
same,phagocytosis index compared with CD47 blocking antibody,[3],higher phagocytosis index than the CD47 blocking antibody
same,phagocytic activity,[4],induced strong phagocytic activity
same,phagocytosis index compared with CD47 blocking antibody,[4],higher phagocytosis index than the CD47 blocking antibody
same,"splenic CD4+ and CD8α+ DCs expressing high levels of MHCII, CD80, and CD86",[5],greatly upregulated splenic CD4+ and CD8α+ DCs
same,rejection of a secondary tumor challenge among mice that rejected the primary tumor,[6]; no additional treatment,60%
same,mice rejecting primary tumors,"[6]; two doses, treatment started at ˜30 mm^3",62%
same,tumor growth / survival,"[6]; two doses, treatment started at ˜30 mm^3, versus vehicle controls",significant prolongation in tumor growth and survival
same,overall CD45+ peripheral lymphocytes,[7]; 24 hours following a single IP injection (300 μg),decrease in overall CD45+ peripheral lymphocytes
same,CD8+ dendritic cells in peripheral blood,[7]; mice,significant increase in CD8+ dendritic cells
same,CD40+ B cells in peripheral blood,[7]; mice,peripheral decrease in CD40+ B cells
